1 molecule from publication PMC8956657 (2022) can be followed below.

The target of assay [1] is IMPα2 lacking the IBB domain (residues 70-529) (UniProt P52293 70-529). Description: FP.
The target in assay [2] is IMPα5 lacking the IBB domain (residues 73-538) (UniProt P52294 73-538). The assay is described as follows: FP.

Where no end group is shown, it is not given here.

Sequence of IMPα5 lacking the IBB domain (residues 73-538) (P52294 73-538): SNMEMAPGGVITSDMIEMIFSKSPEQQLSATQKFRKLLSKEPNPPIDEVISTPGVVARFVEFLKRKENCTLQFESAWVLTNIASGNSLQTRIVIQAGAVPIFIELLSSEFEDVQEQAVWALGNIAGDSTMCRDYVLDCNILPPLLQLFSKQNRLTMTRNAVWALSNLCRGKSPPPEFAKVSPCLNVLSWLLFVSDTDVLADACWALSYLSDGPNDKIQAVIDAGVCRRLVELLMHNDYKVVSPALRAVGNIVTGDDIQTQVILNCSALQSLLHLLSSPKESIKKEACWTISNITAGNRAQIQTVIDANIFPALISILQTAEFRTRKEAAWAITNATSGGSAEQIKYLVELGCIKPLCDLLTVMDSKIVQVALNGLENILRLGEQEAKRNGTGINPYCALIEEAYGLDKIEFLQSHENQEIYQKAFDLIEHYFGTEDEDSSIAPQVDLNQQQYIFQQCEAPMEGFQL

Consider RKARKRSHSPTKKLRYVKRRF (also: FITC-tagged) [FITC-tagged MERS-CoV ORF4b NLS peptide (residues 19-39), wild type], for which the figures for the dissociation constant (Kd) in assay [1] and in assay [2] were 11.3 nM and 9.6 nM, respectively.
